Measured values reported in the supplement of paper PMC10724198.
± gives the standard deviation of the averaged measurements.

Key:
Saccharomyces cerevisiae [1] = test: protein stability index of tFT-peptide fusion (C-terminal peptide) (PSI (0-1 scale)); higher = more stable (slower turnover)
Experimental: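 MPS profiling in S. cerevisiae of the tFT-X12 degron library: putative degron peptides plus stable controls, 12 aa, fused to the C-terminus of a sfGFP-mCherry timer. Cells are FACS-sorted into 8 mCherry/sfGFP bins and deep-sequenced. PSI runs from 0 (unstable) to 1 (stable). Backgrounds are wild type, das1Δ and doa10Δ at 30 °C, and wild type, das1Δ, cdc34-1 and cdc53-1 at 37 °C; 2-3 technical replicates each.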

Saccharomyces cerevisiae [2] = test: as above; settings: genetic background: wild type; temperature: 30 C
[3] = genetic background: cdc34-1, temperature: 37 C
[4] = genetic background: cdc53-1, temperature: 37 C
[5] = genetic background: das1 deletion, temperature: 30 C
[6] = genetic background: das1 deletion, temperature: 37 C
[7] = genetic background: doa10 deletion, temperature: 30 C
[8] = genetic background: wild type, temperature: 30 C
[9] = genetic background: wild type, temperature: 37 C
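Note: PSI is a weighted mean of sequencing reads over stability bins, variants kept only with over 10 reads, mCherry proximal and sfGFP distal, peptide attached via GGGS linker.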

Sequence | protein stability index (Saccharomyces cerevisiae [1]; [3]) | protein stability index (Saccharomyces cerevisiae [1]; [4]) | protein stability index (Saccharomyces cerevisiae [1]; [5]) | protein stability index (Saccharomyces cerevisiae [1]; [6]) | protein stability index (Saccharomyces cerevisiae [1]; [7]) | protein stability index (Saccharomyces cerevisiae [1]; [8]) | protein stability index (Saccharomyces cerevisiae [1]; [9]) | protein stability index (Saccharomyces cerevisiae [2])
YNKIRNNEKKMT | 0.664 ± 0.084 | 0.696 ± 0.026 | 0.674 ± 0.073 | 0.7121 ± 0.0016 | 0.1897 ± 0.0018 | 0.27 ± 0.055 | 0.457 ± 0.043 | 0.36 ± 0.017
DVPLFLPLPVSV | 0.357 ± 0.035 | 0.357 ± 0.01 | 0.278 ± 0.032 | 0.452 ± 0.015 | 0.243 ± 0.0078 | 0.297 ± 0.021 | 0.3903 ± 0.0012 | 0.392 ± 0.0097
PTYSCSIKIQAH | 0.539 ± 0.037 | 0.537 ± 0.037 | 0.407 ± 0.03 | 0.5503 ± 0.0049 | 0.339 ± 0.01 | 0.366 ± 0.022 | 0.517 ± 0.02 | 0.427 ± 0.031
VSPPPLSPPLSR | 0.677 ± 0.014 | 0.7238 ± 0.0031 | 0.6712 ± 0.0055 | 0.709 ± 0.012 | 0.686 ± 0.0078 | 0.673 ± 0.0092 | 0.688 ± 0.014 | 0.701 ± 0.0022
YFFVCYFSLLVF | 0.0832 ± 0.019 | 0.139 ± 0.025 | 0.14 ± 0.032 | 0.231 ± 0.012 | 0.0967 ± 0.0036 | 0.119 ± 0.016 | 0.168 ± 0.03 | 0.177 ± 0.0081
VLLGYPRILSLF | 0.7 ± 0.059 | 0.8278 ± 0.002 | 0.681 ± 0.0075 | 0.8122 ± 0.0047 | 0.1646 ± 0.0013 | 0.167 ± 0.021 | 0.25 ± 0.0096 | 0.35 ± 0.061
LFFFVFFVLFSV | 0.2271 ± 0.00037 | 0.204 ± 0.0057 | 0.218 ± 0.013 | 0.3319 ± 0.0017 | 0.304 ± 0.013 | 0.211 ± 0.023 | 0.303 ± 0.016 | 0.259 ± 0.075
KKKKQKKNNNKR | 0.699 ± 0.094 | 0.687 ± 0.15 | 0.676 ± 0.083 | 0.755 ± 0.034 | 0.668 ± 0.011 | 0.6 ± 0.027 | 0.698 ± 0.079 | 0.536 ± 0.074
LLPTSVFLPSLF | 0.6907 ± 0.0038 | 0.7726 ± 0.0059 | 0.663 ± 0.012 | 0.768 ± 0.014 | 0.282 ± 0.0082 | 0.331 ± 0.021 | 0.578 ± 0.018 | 0.489 ± 0.0069
LVLSFVMLVSGH | 0.183 ± 0.014 | 0.313 ± 0.02 | 0.202 ± 0.013 | 0.384 ± 0.031 | 0.149 ± 0.0053 | 0.185 ± 0.024 | 0.343 ± 0.024 | 0.289 ± 0.012
